Data reported in patent publication US20250313625A1 (ELPISCIENCE SUZHOU BIOPHARMA, published 2025).
Numbering of substitutions follows the chain as printed. Where two headings read alike, the source gives them in different places. One block for each binder: values may come before it.

How the values were obtained:
[1] = biological target: T1, mFc tagged human LAG3 ECD recombinant protein (human, UniProt P18627 23-450); assay: competitive FACS: mFc-LAG3 ECD binding to Raji cells (MHC II)
T1 construct: extracellular domain; purchased from Biointron; not shown: mouse IgG Fc (mFc) tag
T1 sequence (looked up): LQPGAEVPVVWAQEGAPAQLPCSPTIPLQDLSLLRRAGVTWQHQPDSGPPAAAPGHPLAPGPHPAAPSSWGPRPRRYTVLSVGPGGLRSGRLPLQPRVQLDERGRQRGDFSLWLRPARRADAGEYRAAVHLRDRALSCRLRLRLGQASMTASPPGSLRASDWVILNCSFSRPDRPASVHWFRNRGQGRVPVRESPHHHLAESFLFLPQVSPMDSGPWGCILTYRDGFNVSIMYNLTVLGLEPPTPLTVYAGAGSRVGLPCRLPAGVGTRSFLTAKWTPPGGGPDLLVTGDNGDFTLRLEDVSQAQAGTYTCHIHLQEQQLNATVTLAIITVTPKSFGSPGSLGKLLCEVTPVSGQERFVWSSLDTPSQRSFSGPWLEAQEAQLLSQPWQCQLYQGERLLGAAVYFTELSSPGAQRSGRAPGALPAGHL
Protocol: (§1) Activity of the purified chimeric antibodies to block LAG3 and MHC II interaction was determined by competitive FACS assay. […] After washing, dye labeled anti-mouse Fc 2nd antibody (Sigma) was added and incubated at 37° C. for 1 hour. Fluorescence intensity was detected.

[2] = biological target: T2, human LAG3, full length, stably expressed on cells (human, UniProt P18627 23-525); assay: FACS on 293F cells stably expressing human LAG3
T2 construct: whole, on cells; also called CHOK1-human LAG3
T2 sequence (looked up): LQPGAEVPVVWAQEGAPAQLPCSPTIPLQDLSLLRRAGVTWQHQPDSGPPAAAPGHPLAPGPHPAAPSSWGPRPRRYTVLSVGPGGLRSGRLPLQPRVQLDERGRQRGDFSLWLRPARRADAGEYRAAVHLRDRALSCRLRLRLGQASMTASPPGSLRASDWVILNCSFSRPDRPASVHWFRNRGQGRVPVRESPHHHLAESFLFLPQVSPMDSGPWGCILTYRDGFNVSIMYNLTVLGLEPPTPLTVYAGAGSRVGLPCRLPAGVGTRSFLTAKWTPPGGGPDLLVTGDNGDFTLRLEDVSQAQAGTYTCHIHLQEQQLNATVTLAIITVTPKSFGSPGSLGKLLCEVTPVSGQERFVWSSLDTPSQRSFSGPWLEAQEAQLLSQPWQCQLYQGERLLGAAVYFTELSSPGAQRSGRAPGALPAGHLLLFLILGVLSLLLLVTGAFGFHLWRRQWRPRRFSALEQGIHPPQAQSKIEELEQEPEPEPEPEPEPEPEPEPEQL
Protocol: (§2) Briefly the antibodies were incubated with 2×10⁵ target cells at 4° C. for 1 hour. After washing, fluorescence labeled anti-mouse IgG 2nd antibody (Life Technologies) was added and incubated at 4° C. for 1 hour. Geometric median fluorescence intensity (MFI) was detected and EC₅₀ was calculated using GraphPad Prism9.0.
(§3) MFI was detected and EC₅₀ was calculated using GraphPad Prism9.0.

[3] = biological target: T3, hFc tagged human LAG3 ECD recombinant protein (human, UniProt P18627 23-450); assay: competitive ELISA format II: biotin hFc-LAG3 ECD binding to coated His-FGL1
T3 construct: range 23-450; also called biotin labelled hFc tagged human LAG3 ECD; not shown: human IgG Fc tag
T3 sequence (looked up): T1 sequence (looked up)
Protocol: After washing, HRP labeled anti-His 2nd antibody (Sigma) was added and incubated at 37° C. for 1 hour. Then, 100 μl/well of TMB solution (Biotechnology) was added. After incubation for 15 minutes at room temperature, the reaction was stopped by the addition of 50 μl of 1N HCl. OD 450 nm was read. […] After washing, HRP labeled anti-SA 2nd antibody (Sigma) was added and incubated at 37° C. for 1 hour. Then, 100 μl/well of TMB solution (Biotechnology) was added. After incubation for 15 minutes at room temperature, the reaction was stopped by the addition of 50 μl of 1N HCl. OD 450 nm was read. […] The competition assay of format III is a competitive FACS assay. […] After washing, dye labeled anti-His 2nd antibody (Sigma) was added and incubated at 37° C. for 1 hour. Fluorescence intensity was detected.

[4] = biological target: T4, human LAG3 (form used in Octet, Biacore and HDX-MS not given) (human, UniProt P18627 23-450, limits assumed); assay: BLI (Octet)
T4 sequence (looked up): T1 sequence (looked up)

[5] = biological target: T3, hFc tagged human LAG3 ECD recombinant …; assay: competitive ELISA: excess competitor, biotin hFc-LAG3 ECD, coated BMS-986016
Protocol: (§4) Competitive ELISA assay was used for epitope binning of the purified hybridoma antibodies. […] After washing, HRP labeled anti-streptavidin (SA) 2nd antibody (Sigma) was added and incubated at 37° C. for 1 hour. Then, 100 μl/well of TMB solution (Biotechnology) was added. After incubation for 15 minutes at room temperature, the reaction was stopped by the addition of 50 μl of 1N HCl. OD 450 nm was read. Competition ratio was calculated.

[6] = biological target: T5, mouse LAG3, full length, stably expressed on CHOK1 cells (mouse, UniProt Q61790 24-521); assay: FACS on CHOK1 cells expressing mouse LAG3
T5 construct: whole, on cells
T5 sequence (looked up): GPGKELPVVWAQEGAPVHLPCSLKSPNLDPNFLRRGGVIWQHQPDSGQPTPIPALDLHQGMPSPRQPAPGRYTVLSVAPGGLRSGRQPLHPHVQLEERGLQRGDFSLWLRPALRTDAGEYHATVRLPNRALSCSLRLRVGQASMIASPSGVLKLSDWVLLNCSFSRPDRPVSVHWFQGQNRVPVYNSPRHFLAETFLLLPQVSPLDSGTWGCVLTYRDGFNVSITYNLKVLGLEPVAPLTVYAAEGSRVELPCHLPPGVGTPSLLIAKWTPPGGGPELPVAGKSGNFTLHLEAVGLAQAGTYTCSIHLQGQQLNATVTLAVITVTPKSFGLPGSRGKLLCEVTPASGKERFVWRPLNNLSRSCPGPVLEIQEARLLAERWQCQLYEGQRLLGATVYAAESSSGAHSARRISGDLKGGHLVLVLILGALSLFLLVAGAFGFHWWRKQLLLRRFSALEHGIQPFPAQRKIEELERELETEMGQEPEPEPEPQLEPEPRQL
Protocol: as §2

[7] = biological target: T6, hFc tagged human LAG3 D1-D2 recombinant protein (human, UniProt P18627 23-261); assay: ELISA, coated hFc-hLAG3 D1-D2
T6 construct: range 23-261; generated by Chempartner; also called hLAG3 D1-D2; not shown: human IgG Fc tag
T6 sequence (looked up): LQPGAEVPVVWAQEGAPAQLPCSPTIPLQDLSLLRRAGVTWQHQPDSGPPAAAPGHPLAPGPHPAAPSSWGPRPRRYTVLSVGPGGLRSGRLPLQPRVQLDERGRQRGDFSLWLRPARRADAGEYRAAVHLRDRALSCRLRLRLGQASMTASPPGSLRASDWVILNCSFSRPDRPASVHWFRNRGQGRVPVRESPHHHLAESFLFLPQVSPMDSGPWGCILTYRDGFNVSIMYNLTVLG
Protocol: Binding activity of the purified hybridoma antibodies against human LAG3 was detected by ELISA assay using hFc tagged human LAG3 D1-D2 recombinant protein. Briefly the antibodies were incubated with ELISA microplate coated antigens at 37° C. for 1 hour. After washing, horseradish peroxidase (HRP) labeled anti-human IgG 2nd Ab (Sigma) was added and incubated at 37° C. for 1 hour. Then, 100 μl/well of TMB solution (Biotechnology) was added. After incubation for 15 minutes at room temperature, the reaction was stopped by the addition of 50 μl of 1N HCl. OD 450 nm was read and EC₅₀ was calculated using GraphPad Prism9.0.

[8] = biological target: T7, cyno LAG3, full length, stably expressed on 293F cells (cyno); assay: FACS on 293F-cyno LAG3 cells, 20 nM antibody
T7 construct: whole, on cells
Protocol: as §2

[9] = biological target: T3, hFc tagged human LAG3 ECD recombinant …; assay: competitive ELISA: excess competitor, biotin hFc-LAG3 ECD, coated BAP-050
Protocol: as §4

[10] = biological target: T2, human LAG3, full length, stably …; assay: FACS on 293F-human LAG3 cells
Protocol: as §2

[11] = biological target: T3, hFc tagged human LAG3 ECD recombinant …; assay: competitive FACS: hFc-LAG3 ECD binding to Raji cells (MHC II)
Protocol: Competitive FACS assay was used to determine whether the purified hybridoma antibodies can block LAG3 and MHC II interaction. […] After washing, dye labeled anti-human Fc 2nd antibody (Sigma) was added and incubated at 37° C. for 1 hour. Fluorescence intensity was detected.

[12] = biological target: T4, human LAG3 (form used in Octet, Biacore …); assay: BLI (Octet), 1:1 fit
Protocol: The purified chimeric antibodies were characterized for binding affinity against human LAG3 using Bio-Layer Interferometry technology (Octet system). The association and dissociation curves were fit with 1:1 binding model, and the Ka/Kd/KD values for each antibody were calculated.

[13] = biological target: T2, human LAG3, full length, stably …; assay: FACS on 293F cells stably expressing human LAG3; remark: listed apart in the source
Protocol: as §2, §3

[14] = biological target: T1, mFc tagged human LAG3 ECD recombinant …; assay: competitive FACS: mFc-LAG3 ECD binding to Raji cells (MHC II); remark: listed apart in the source
Protocol: as §1

B1: hu023.07 (antibody, human IgG4, V domains shown)
VH: QVQLVQSGPEVKKPGASVKVSCKASGYTFTESPMNWVRQAPGQGFEWMGIIYTDTGEPTYAEEFKGRVTMTLDTSTSTVYMELSSLRSEDTAVYFCASDYGSILYWYFDVWGQGTLVTVSS
VL: DIQMTQSPSSLSASVGDRVTITCKASQDVSTAVAWYQQKPGKAPKLLIYSASYRYTGVPSRFSGSGSGTDFTLTISSLQPEDFATYYCQQHYNAPPTFGQGTKLEIK
notes: humanized from 023c
- IC50 [1]: 5.5 nM
- TOP blocking (%) [1]: 99.2%
- EC50 [2]: 0.32 nM
- TOP MFI [2]: 2990
- IC50 [3]: 1.5 nM
- TOP blocking (%) [3]: 81.3%
- Kd [4]: 0.591 nM
- koff [4]: 0.000153 s⁻¹
- kon [4]: 259000 M⁻¹ s⁻¹

B2: hu023.10 (antibody, human IgG4, V domains shown)
VH: QVQLVQSGPELKKPGASVKVSCKASGYTFTESPMNWVRQAPGQGFEWMGIIYTDTGEPTYAEEFKGRFVFSLDTSVSTAYLQISSLKAEDTAVYFCVSDYGSILYWYFDVWGQGTLVTVSS
VL: B1 VL
notes: humanized from 023c
- IC50 [1]: 5.9 nM
- TOP blocking (%) [1]: 99.2%
- EC50 [2]: 0.2 nM
- TOP MFI [2]: 3200
- IC50 [3]: 1.3 nM
- TOP blocking (%) [3]: 82.8%
- Kd [4]: 0.281 nM
- koff [4]: 7.96e-05 s⁻¹
- kon [4]: 284000 M⁻¹ s⁻¹

B5: TSR-033 (antibody, V domains shown)
VH: EVQLVQSGAEVKKPGATVKISCKASGFSIKDDYIHWVQQAPGKGLEWMGWIDAMNDDSQYSSKFQGRVTITVDTSTNTAYMKLSSLRSEDTAVYYCTYAFGGYWGQGTTVTVSS
VL: DIVMTQTPLSLSVTPGQPASISCRSSQSLVHSDSNTYLHWYLQKPGQSPQLLIYLVSNRFSGVPDRFSGSGSGTDFTLKISRVEAEDVGVYFCGQSTHVPYAFGGGTKVEIK
- Kd [12]: 2.72 nM
- koff [12]: 0.000674 s⁻¹
- kon [12]: 248000 M⁻¹ s⁻¹
- EC50 [13]: 2.6 nM
- TOP MFI [13]: 247
- IC50 [14]: 12.4 nM
- TOP blocking (%) [14]: 96%

Other lines, results leading:

- IC50 [1]: 5.7 nM
- TOP blocking (%) [1]: 99.3%
- EC50 [2]: 0.19 nM
- TOP MFI [2]: 3100
- IC50 [3]: 1.2 nM
- TOP blocking (%) [3]: 83.2%
- Kd [4]: 0.121 nM
- koff [4]: 3.67e-05 s⁻¹
- kon [4]: 303000 M⁻¹ s⁻¹
B3: hu023.13 (antibody, human IgG4, V domains shown)
VH: B2 VH with V2I, V20I
VL: B1 VL
notes: humanized from 023c

- % competition [5]: 43.7%
- binding result [6]: no binding
- EC50 [7]: 0.05 nM
- MFI at 20 nM [8]: 125 MFI
- % competition [9]: -2.7%
- EC50 [10]: 2.65 nM
- IC50 [11]: 4.9 nM
- TOP blocking (%) [11]: 84.2%
B4: Antibody 023 (antibody, V domains shown)
VH: QIQLVQSGPVLKKPGETVKISCKASGYTFTESPMNWVKQAPGRGFKWMGMIYTDTGEPTYAEEFKGRFAFSLETSASTAYLQINNLKSEDTATYFCVSDYGSILYWYFDVWGTGTTVTVSS
VL: DIVMTQSHKFMSTSVGDRVSITCKASQDVSTAVAWYQQTPGQSPKLLIYSASYRYTGVPDRFTGSGSGTDFTFTISSVQAEDLAVYYCQQHYNSPPTFGAGTKLELK
notes: mouse hybridoma antibody

- % competition [5]: 73%
- binding result [6]: no binding
- EC50 [7]: 0.05 nM
- MFI at 20 nM [8]: 154 MFI
- % competition [9]: -0.5%
- EC50 [10]: 2.04 nM
- IC50 [11]: 5.5 nM
- TOP blocking (%) [11]: 81%
B6: Antibody 024 (antibody, V domains shown)
VH: EVQLQQSGPELVKPGASVKISCKASGYTFTDYYMNWVKQSHGKRLEWIGDIDPNNGGTSYNQKFKGKATLTVDKSSSSAYMDLRSLTSEDSAVYYCARAGSYYYGSSYVEYFDVWGTGTTVTVSS
VL: DIQMTQSPASLSASVGETVTITCRASGNIHNYLAWYQQKQGASPQLLVYNAKTLADGVPSRFSGSGSGTEFSLKINSLQPEDFGNYYCQHFWNTPYTFGGGTKLEIK
notes: mouse hybridoma antibody
